{"source": "patent US20220040304A1", "about": "“A COMPOSITION FOR CANCER CELL DEATH AND ITS USE” (Industry-University Cooperation Foundation Hanyang …, priority 2018, published 2022)", "key": {"MCF-7 cells": {"test_system": "MCF-7 cells", "experiment": "Cell death according to presence of serum and protein treatment time (Co-h)", "assay_type": "cell-based, human", "settings": "MCF-7, protein 10 μM, serum-free media or serum-containing media, Co-h 150 μM", "method": "MCF-7 cells were seeded at 5×10^5 cells/mL in a 96-well plate (SPL Cell Culture Plate, 96 well (SPL, Cat #30096)), and cultured at 37° C. for 24 hours (overnight). After the culture for 24 hours, the cells were washed with FBS & Phenol red-free media (RPMI, Well Gene., Korea, Cat #LM011-02), and 100 μL of an FBS-free medium or FBS media (RPMI), containing purified protein (final concentration: 10 μM), was added, followed by reaction at 37° C. over time.\nAfter the reaction, the cells were washed with FBS & Phenol red-free media (RPMI), 100 μL of FBS & Phenol red-free media (RPMI) containing a Co-h substrate solution (final concentration: 150 μM) and SYTOX Green (final concentration: 261 nM) staining DNA of dead cells was added, followed by reaction at 37° C. for 30 minutes.\n(§1) After the reaction, 10 μL of DAPI staining DNA of live cells was added, followed by reaction for 5 minutes. Cell death was confirmed by observing KillerRed, SYTOX Green and DAPI fluorescence using a confocal microscope."}, "MDA-MB-231 [1]": {"test_system": "MDA-MB-231", "experiment": "Cell death after light irradiation by cell type (SYTOX Green/DAPI)", "assay_type": "cell-based, human", "settings": "MDA-MB-231, protein 10 μM, light 10 mW/cm^2 for 10 minutes", "method": "MDA-MB-231: (Origin: breast, mammary gland, Species: human—person, Growth pattern: monolayer, Media: DMEM with glucose (4.5 g/L), L-glutamine and sodium pyruvate, 90%; heat inactivated fetal bovine serum (FBS), 10%), purchased from Korean Cell Line Bank (KCLB).\n(§2) The cells were seeded at 5×10^5 cells/mL in 96-well plates (SPL Cell Culture Plate, 96 well (SPL, Cat #30096)), and cultured at 37° C. for 24 hours (overnight). After the culture for 24 hours, the cells were washed with FBS & phenol red-free media, and 100 μL of FBS & phenol red-free media containing a purified protein (final concentration: 10 μM) was added, followed by reaction at 37° C. for 24 hours. After the reaction for 24 hours, the cells were washed with FBS & phenol red-free media, and 100 μL of FBS & phenol red-free media was added.\nas §1, with “irradiation with light at 10 mW/cm^2 for 10 minutes, 50 μL (final concentration: 261 nM) of SYTOX Green staining DNA of dead cells was added, followed by reaction at 37° C. for 30 minutes.” for “the reaction,”"}, "MCF-7": {"test_system": "MCF-7", "experiment": "Cell death with Co-h substrate by cell type (SYTOX Green or EthD-1/DAPI)", "assay_type": "cell-based, human", "settings": "MCF-7, protein 10 μM, Co-h 150 μM for 5 minutes", "method": "as §2, with “hours.” for “hours. After the reaction for 24 hours, the cells were washed with FBS & phenol red-free media, and 100 μL of FBS & phenol red-free media was added.”\n(§3) Subsequently, the cells were washed with FBS & phenol red-free media, and 100 μL of FBS & phenol red-free media was added. 100 μL of FBS & Phenol red-free media (RPMI) containing a Co-h substrate solution (final concentration: 150 μM) was added, followed by reaction at 37° C. for 5 minutes.\n(§4) After the reaction, 50 μL of SYTOX Green (final concentration: 261 nM) or 90 μL of ethidium homodimer (EthD-1) (final concentration 1×), which stains DNA of dead cells, was added, followed by reaction at 37° C. for 30 minutes. 10 μL of DAPI staining DNA of live cells was added, followed by reaction for 5 minutes. Cell death was confirmed by observing KillerRed, SYTOX Green, MiniSOG, EthD-1 and DAPI fluorescence using a confocal microscope."}, "MDA-MB-231 [2]": {"test_system": "MDA-MB-231", "experiment": "Cell death with Co-h substrate by cell type (SYTOX Green or EthD-1/DAPI)", "assay_type": "cell-based, human", "settings": "MDA-MB-231, protein 10 μM, Co-h 150 μM for 5 minutes", "method": "as §2, with “hours.” for “hours. After the reaction for 24 hours, the cells were washed with FBS & phenol red-free media, and 100 μL of FBS & phenol red-free media was added.”\nas §3, §4"}, "MDA-MB-435": {"test_system": "MDA-MB-435", "experiment": "Cell death with Co-h substrate by cell type (SYTOX Green or EthD-1/DAPI)", "assay_type": "cell-based, human", "settings": "MDA-MB-435, protein 10 μM, Co-h 150 μM for 5 minutes", "method": "as §2, with “hours.” for “hours. After the reaction for 24 hours, the cells were washed with FBS & phenol red-free media, and 100 μL of FBS & phenol red-free media was added.”\nas §3, §4"}, "[3]": {"test_system": "patient breast cancer cell lines (primary cells, triple negative)", "experiment": "Cytotoxic effect in patient primary breast cancer cells (triple negative)", "assay_type": "cell-based", "settings": "protein 10 μM", "method": "Cells were seeded at 5×10^5 cells/mL in 96-well plates (SPL Cell Culture Plate, 96 well (SPL, Cat #30096)), and cultured at 37° C. for 24 hours. After the culture for 24 hours, the cells were washed with primary cell media, and 100 μL of primary cell media containing a purified protein (final concentration: 10 μM) was added, followed by reaction at 37° C. for 12 hours.\nAfter the reaction for 24 hours, the cells were washed with primary cell media, and 100 μL of primary cell media was added. After treatment with a Co-h substrate solution (final concentration: 150 μM) for 5 minutes or irradiation with light at 10 mW/cm^2 for 5 minutes, 50 μL of SYTOX Green (final concentration: 261 nM) staining DNA of dead cells was added, followed by reaction at 37° C. for 30 minutes.\n10 μL of DAPI staining DNA of live cells was added, followed by reaction for 5 minutes. Cell death was confirmed by fluorescence imaging of SYTOX Green and DAPI fluorescence according to the type of protein treating cells and the light irradiation time using a confocal microscope. Data on patient breast cancer cell lines used in this example are as follows (Table 5)."}}}
{"molecule": "RLuc8.6-KR-LP: fusion protein of RLuc8.6, KillerRed and lead peptide WLEAAYQRFL, 71 kDa (protein, pRSET-RLuc8.6-KillerRed-Lead peptide) MRGSHHHHHHGMASMTGGQQMGRDLYDDDDKDPMASKVYDPEQRKRMITGPQWWARCKQMNVLDSFINYYDSEKHAENAVIFLHGNATSSYLWRHVVPHIEPVARCIIPDLIGMGKSGKSGNGSYRLLDHYKYLTAWFELLNLPKKIIFVGHDWGSALAFHYAYEHQDRIKAIVHMESVVDVIESWMGWPDIEEELALIKSEEGEKMVLENNFFVETLLPSKIMRKLEPEEFAAYLEPFKEKGEVRRPTLSWPREIPLVKGGKPDVVQIVRNYNAYLRASDDLPKLFIESDPGFFYNAIVEGAKKFPNTEFVKVKGLHFLQEDAPDEMGKYIKSFVERVLKNEQEFGGGMLCCMRRTKQVEKNDEDQKISEGGPALFQSDMTFKIFIDGEVNGQKFTIVADGSSKFPHGDFNVHAVCETGKLPMSWKPICHLIQYGEPFFARYPDGISHFAQECFPEGLSIDRTVRFENDGTMTSHHTYELDDTCVVSRITVNCDGFQPDGPIMRDQLVDILPNETHMFPHGPNAVRQLAFIGFTTADGGLMMGHFDSKMTFNGSRAIEIPGPHFVTIITKQMRDTSDKRDHVCQREVAYAHSVPRITSAIGSDEDGGGWLEAAYQRFL", "values": [{"measurement": "protein treatment time from which the number of cells stained with SYTOX Green increased", "setting": "MCF-7 cells", "value": "~4", "unit": "h"}, {"measurement": "cell death after light irradiation", "setting": "MDA-MB-231 [1]", "value": "killing the three types of cancer cell lines"}, {"measurement": "cell death with Co-h substrate", "setting": "MCF-7", "value": "killed them"}, {"measurement": "cell death with Co-h substrate", "setting": "MDA-MB-231 [2]", "value": "killed them"}, {"measurement": "cell death with Co-h substrate", "setting": "MDA-MB-435", "value": "killed them"}, {"measurement": "death of Co-h substrate-added cells compared with light irradiation", "setting": "[3]; Co-h 150 μM for 5 minutes", "value": "more effectively shown"}, {"measurement": "cytotoxic effect in patient breast cancer cell lines", "setting": "[3]; Co-h 150 μM for 5 minutes or light 10 mW/cm^2 for 5 minutes", "value": "a cytotoxic effect was exhibited"}]}
{"molecule": "RLuc8.6-KR: fusion protein of RLuc8.6 and KillerRed without lead peptide, 69 kDa (protein, pRSET-RLuc8.6-KillerRed) MRGSHHHHHHGMASMTGGQQMGRDLYDDDDKDPMASKVYDPEQRKRMITGPQWWARCKQMNVLDSFINYYDSEKHAENAVIFLHGNATSSYLWRHVVPHIEPVARCIIPDLIGMGKSGKSGNGSYRLLDHYKYLTAWFELLNLPKKIIFVGHDWGSALAFHYAYEHQDRIKAIVHMESVVDVIESWMGWPDIEEELALIKSEEGEKMVLENNFFVETLLPSKIMRKLEPEEFAAYLEPFKEKGEVRRPTLSWPREIPLVKGGKPDVVQIVRNYNAYLRASDDLPKLFIESDPGFFYNAIVEGAKKFPNTEFVKVKGLHFLQEDAPDEMGKYIKSFVERVLKNEQEFGGGMLCCMRRTKQVEKNDEDQKISEGGPALFQSDMTFKIFIDGEVNGQKFTIVADGSSKFPHGDFNVHAVCETGKLPMSWKPICHLIQYGEPFFARYPDGISHFAQECFPEGLSIDRTVRFENDGTMTSHHTYELDDTCVVSRITVNCDGFQPDGPIMRDQLVDILPNETHMFPHGPNAVRQLAFIGFTTADGGLMMGHFDSKMTFNGSRAIEIPGPHFVTIITKQMRDTSDKRDHVCQREVAYAHSVPRITSAIGSDED", "values": [{"measurement": "cell death with Co-h substrate", "setting": "MCF-7", "value": "none of the six breast cancer cell lines were killed"}, {"measurement": "cell death with Co-h substrate", "setting": "MDA-MB-231 [2]", "value": "none of the six breast cancer cell lines were killed"}, {"measurement": "cell death with Co-h substrate", "setting": "MDA-MB-435", "value": "none of the six breast cancer cell lines were killed"}]}
